# Experimental data: patent US20110052564
# T1: crossbeta dOVA-1, ovalbumin at 5.2 mg/ml in HBS treated with HCl for 40 minutes at 37 C and neutralized, P01012
# T1 chain: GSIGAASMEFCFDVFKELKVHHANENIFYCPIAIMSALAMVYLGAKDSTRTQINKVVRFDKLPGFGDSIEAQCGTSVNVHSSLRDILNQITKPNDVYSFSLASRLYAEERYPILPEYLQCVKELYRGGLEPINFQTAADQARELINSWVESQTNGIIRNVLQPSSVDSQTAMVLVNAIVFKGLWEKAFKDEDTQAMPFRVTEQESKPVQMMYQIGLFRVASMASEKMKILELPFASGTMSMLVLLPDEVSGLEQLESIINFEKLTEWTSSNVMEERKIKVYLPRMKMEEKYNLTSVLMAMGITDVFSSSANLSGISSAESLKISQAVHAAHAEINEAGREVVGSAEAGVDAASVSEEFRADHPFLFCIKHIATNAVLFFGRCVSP
# T2: crossbeta dOVA-2, ovalbumin at 1.0 mg/mL in PBS heated five cycles from 30 to 85 C, P01012
# T2 chain: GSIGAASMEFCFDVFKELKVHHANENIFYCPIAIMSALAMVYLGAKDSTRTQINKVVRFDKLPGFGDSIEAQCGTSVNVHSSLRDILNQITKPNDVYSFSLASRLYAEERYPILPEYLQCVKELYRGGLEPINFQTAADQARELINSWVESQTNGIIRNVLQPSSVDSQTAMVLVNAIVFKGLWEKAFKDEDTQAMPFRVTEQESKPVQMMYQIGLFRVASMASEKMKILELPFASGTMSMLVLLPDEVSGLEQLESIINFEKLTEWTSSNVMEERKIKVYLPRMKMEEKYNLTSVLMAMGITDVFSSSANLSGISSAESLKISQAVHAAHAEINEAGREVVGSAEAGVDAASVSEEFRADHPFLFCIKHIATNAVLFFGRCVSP
# T3: crossbeta dOVA-3, ovalbumin at 1 mg/ml in PBS incubated about 16 h at 75 C, P01012
# T3 chain: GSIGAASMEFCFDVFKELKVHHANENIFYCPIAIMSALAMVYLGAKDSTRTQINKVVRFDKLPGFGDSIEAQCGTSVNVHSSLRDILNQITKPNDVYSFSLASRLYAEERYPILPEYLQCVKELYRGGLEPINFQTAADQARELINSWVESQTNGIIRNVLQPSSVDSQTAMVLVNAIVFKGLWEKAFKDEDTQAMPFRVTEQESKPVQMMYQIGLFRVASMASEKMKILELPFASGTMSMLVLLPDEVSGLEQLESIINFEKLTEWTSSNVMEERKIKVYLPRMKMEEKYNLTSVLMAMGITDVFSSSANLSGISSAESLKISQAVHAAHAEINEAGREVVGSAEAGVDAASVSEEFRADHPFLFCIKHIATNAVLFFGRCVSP
# T4: crossbeta nOVA, ovalbumin dissolved in PBS at 1.0 mg/mL, P01012
# T4 chain: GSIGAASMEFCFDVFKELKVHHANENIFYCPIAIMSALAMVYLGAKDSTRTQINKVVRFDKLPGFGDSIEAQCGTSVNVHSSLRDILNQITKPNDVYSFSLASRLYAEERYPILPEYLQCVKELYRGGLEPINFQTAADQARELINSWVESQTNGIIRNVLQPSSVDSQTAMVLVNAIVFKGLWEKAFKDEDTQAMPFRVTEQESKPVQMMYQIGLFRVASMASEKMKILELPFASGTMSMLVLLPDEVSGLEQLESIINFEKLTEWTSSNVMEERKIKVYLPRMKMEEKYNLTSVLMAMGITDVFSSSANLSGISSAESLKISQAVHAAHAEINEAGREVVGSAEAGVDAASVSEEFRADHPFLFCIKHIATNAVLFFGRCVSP
# Assays:
# [1] = molecular target: crossbeta FVIII-1 (cFVIII-1), Helixate kept at 4 C for 20 hours
# [2] = molecular target: crossbeta FVIII-5 (cFVIII-5), Helixate kept at 95 C for 5 minutes
# [3] = molecular target: T1, crossbeta dOVA-1, ovalbumin at 5.2 …
# [4] = molecular target: T2, crossbeta dOVA-2, ovalbumin at 1.0 …
# [5] = molecular target: T3, crossbeta dOVA-3, ovalbumin at 1 mg/ml …
# [6] = molecular target: crossbeta factor VIII form 12, Helixate kept at 37 C for 1 week, P00451
# [7] = molecular target: T4, crossbeta nOVA, ovalbumin dissolved in …
# [8] = molecular target: misfolded H5 of H5N1 strain A/Vietnam/1203/04, cH5-1
# [9] = molecular target: misfolded H5 of H5N1 strain A/Vietnam/1203/04, cH5-2
# [10] = molecular target: misfolded H5 of H5N1 strain A/Vietnam/1203/04, cH5-3
# [11] = molecular target: misfolded H5 of H5N1 strain A/Vietnam/1203/04, cH5-4
# [12] = molecular target: non-treated H5 of H5N1 strain A/Vietnam/1203/04 (nH5), Protein Sciences
# Sequence of crossbeta FVIII-1 (cFVIII-1), Helixate kept at 4 C for 20 hours (chain, as listed by the source): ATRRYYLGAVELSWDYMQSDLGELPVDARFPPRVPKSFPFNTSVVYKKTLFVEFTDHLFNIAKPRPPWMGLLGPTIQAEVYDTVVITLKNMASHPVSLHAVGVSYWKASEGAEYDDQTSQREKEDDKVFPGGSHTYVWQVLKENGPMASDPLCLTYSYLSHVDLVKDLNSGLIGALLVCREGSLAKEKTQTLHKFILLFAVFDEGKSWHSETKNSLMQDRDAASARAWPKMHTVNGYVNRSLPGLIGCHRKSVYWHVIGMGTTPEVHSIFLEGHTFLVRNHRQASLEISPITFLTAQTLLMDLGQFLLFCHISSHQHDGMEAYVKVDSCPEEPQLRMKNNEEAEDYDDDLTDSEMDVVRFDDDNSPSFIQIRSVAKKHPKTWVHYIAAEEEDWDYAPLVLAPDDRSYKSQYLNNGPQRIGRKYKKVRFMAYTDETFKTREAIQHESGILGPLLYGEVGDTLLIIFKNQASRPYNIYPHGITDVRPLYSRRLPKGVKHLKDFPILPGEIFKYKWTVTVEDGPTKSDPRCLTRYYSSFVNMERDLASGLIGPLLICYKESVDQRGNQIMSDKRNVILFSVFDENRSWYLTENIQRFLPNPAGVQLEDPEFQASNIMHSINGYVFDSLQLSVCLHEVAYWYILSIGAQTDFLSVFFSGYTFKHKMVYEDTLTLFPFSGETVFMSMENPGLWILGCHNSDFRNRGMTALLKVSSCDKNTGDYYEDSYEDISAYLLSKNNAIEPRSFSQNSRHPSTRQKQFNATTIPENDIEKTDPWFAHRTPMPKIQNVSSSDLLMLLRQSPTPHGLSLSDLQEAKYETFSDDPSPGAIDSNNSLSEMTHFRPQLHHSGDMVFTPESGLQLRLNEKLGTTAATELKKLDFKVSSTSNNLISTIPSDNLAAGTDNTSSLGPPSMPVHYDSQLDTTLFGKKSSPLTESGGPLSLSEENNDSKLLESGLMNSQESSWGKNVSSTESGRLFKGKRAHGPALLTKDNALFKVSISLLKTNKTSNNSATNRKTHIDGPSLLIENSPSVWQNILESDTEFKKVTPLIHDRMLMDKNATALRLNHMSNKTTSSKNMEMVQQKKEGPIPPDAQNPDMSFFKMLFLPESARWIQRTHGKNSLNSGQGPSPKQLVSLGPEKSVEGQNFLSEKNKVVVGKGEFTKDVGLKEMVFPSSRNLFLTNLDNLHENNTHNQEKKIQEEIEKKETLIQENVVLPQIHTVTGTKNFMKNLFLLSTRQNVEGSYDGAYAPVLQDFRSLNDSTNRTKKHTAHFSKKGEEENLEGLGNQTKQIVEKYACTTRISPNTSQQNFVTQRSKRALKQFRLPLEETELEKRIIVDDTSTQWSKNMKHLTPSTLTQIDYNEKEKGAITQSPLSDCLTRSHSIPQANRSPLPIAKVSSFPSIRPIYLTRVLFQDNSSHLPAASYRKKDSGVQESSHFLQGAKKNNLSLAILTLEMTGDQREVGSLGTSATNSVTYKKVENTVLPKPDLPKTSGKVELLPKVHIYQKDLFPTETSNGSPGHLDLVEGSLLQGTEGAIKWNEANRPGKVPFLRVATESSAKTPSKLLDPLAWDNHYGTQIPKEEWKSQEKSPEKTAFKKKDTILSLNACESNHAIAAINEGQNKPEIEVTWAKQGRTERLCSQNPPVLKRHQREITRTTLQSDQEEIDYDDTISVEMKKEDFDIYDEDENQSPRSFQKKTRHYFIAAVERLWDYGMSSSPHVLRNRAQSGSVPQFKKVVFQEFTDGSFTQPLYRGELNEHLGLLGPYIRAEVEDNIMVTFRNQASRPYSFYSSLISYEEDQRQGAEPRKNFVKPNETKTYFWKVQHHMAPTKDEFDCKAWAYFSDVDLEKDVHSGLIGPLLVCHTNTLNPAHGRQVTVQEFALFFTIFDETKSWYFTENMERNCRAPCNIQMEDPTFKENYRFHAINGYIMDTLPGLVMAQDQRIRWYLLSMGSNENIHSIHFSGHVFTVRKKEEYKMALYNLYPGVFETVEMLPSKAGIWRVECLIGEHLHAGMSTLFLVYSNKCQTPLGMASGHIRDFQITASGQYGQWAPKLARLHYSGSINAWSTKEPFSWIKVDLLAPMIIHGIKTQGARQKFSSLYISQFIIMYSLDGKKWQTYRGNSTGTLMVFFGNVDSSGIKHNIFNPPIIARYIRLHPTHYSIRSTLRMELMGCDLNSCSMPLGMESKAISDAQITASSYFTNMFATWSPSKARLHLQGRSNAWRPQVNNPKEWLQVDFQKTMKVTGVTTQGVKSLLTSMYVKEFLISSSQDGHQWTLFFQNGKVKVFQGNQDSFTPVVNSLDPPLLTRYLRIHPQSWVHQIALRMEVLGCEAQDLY
# Sequence of crossbeta FVIII-5 (cFVIII-5), Helixate kept at 95 C for 5 minutes (chain, as listed by the source): as above
# Sequence of crossbeta factor VIII form 12, Helixate kept at 37 C for 1 week, P00451 (P00451 whole entry, looked up): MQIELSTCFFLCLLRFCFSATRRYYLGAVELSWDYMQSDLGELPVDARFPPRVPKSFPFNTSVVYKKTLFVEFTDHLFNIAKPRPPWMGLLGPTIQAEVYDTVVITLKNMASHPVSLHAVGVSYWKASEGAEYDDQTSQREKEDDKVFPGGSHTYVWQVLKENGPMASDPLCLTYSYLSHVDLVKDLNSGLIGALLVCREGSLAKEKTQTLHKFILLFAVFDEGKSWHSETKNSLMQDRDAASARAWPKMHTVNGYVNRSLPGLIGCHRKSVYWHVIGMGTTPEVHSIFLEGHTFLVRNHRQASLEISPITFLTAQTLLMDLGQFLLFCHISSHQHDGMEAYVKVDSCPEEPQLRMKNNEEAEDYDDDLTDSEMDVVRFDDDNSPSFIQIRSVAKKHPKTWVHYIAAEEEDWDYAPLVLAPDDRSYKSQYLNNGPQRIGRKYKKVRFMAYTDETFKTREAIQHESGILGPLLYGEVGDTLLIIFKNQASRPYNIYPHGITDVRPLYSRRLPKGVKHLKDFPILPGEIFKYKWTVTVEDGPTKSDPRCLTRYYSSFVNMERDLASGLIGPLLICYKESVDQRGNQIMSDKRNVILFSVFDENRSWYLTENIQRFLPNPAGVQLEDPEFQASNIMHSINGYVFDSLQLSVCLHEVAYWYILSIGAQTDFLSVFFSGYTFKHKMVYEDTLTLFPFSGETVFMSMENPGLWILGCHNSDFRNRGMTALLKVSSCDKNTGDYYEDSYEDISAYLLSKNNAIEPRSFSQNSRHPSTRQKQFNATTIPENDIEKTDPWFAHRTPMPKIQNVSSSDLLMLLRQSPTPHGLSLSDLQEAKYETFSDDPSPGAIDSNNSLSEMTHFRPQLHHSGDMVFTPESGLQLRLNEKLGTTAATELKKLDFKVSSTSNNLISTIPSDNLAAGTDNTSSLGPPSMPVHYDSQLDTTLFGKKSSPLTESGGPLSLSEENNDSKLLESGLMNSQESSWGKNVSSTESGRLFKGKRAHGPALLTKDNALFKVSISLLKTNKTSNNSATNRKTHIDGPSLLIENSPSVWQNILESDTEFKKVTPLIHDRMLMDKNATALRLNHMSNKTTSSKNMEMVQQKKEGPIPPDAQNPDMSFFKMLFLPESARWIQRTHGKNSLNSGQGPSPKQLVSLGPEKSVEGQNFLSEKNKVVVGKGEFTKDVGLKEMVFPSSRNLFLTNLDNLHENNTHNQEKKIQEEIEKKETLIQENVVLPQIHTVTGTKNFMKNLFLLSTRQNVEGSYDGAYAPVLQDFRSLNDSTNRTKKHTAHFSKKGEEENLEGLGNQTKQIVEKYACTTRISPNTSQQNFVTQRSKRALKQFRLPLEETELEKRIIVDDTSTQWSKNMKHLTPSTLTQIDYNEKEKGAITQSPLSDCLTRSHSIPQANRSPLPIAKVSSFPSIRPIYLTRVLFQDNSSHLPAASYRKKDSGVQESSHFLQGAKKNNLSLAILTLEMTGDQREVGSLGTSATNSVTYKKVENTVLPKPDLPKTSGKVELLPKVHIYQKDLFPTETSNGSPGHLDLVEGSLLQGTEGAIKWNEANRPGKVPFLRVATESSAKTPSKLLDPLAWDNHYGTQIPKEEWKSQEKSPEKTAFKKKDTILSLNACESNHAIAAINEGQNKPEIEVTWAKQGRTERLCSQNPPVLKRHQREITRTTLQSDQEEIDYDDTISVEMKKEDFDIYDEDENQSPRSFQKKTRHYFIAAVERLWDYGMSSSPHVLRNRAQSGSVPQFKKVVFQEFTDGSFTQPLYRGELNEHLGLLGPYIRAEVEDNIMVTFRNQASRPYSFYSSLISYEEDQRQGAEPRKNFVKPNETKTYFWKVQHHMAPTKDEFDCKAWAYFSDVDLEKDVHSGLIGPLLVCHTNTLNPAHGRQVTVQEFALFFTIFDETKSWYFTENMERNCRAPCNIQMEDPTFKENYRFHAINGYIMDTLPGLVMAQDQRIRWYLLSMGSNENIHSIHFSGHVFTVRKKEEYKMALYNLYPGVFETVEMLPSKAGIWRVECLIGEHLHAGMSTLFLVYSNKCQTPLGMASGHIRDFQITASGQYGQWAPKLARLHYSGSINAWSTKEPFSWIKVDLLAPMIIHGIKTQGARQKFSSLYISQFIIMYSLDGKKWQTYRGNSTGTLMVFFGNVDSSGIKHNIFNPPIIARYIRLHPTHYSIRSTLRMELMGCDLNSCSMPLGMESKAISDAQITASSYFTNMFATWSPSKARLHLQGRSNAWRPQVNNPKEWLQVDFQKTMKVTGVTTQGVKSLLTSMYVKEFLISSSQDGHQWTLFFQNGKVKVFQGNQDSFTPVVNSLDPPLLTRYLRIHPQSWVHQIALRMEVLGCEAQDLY
protein,measurement,setting,value
"tissue type plasminogen activator (tPA; Actilyse, Boehringer-Ingelheim) (protein) SYQVICRDEKTQMIYQQHQSWLRPVLRSNRVEYCWCNSGRAQCHSVPVKSCSEPRCFNGGTCQQALYFSDFVCQCPEGFAGKCCEIDTRATCYEDQGISYRGTWSTAESGAECTNWNSSALAQKPYSGRRPDAIRLGLGNHNYCRNPDRDSKPWCYVFKAGKYSSEFCSTPACSEGNSDCYFGNGSAYRGTHSLTESGASCLPWNSMILIGKVYTAQNPSAQALGLGKHNYCRNPDGDAKPWCHVLKNRRLTWEYCDVPSCSTCGLRQYSQPQFRIKGGLFADIASHPWQAAIFAKHRRSPGERFLCGGILISSCWILSAAHCFQERFPPHHLTVILGRTYRVVPGEEEQKFEVEKYIVHKEFDDDTYDNDIALLQLKSDSSRCAQESSVVRTVCLPPADLQLPDWTECELSGYGKHEALSPFYSERLKEAHVRLYPSSRCTSQHLLNRTVTDNMLCAGDTRSGGPQANLHDACQGDSGGPLVCLNDGRMTLVGIISWGLGCGQKDVPGVYTKVTNYLDWIRDNMRP","tPA/Plg activation assay, relative crossbeta content compared to a misfolded ovalbumin standard",[1],"approximately 50, 75 and 125%"
same,"tPA/Plg activation assay, relative crossbeta content compared to a misfolded ovalbumin standard",[2],"approximately 50, 75 and 125%"
same,Activation at 10 ug/mL,[3],97.4%
same,Activation at 25 ug/mL,[3],136%
same,Activation at 10 ug/mL,[4],107%
same,"Activation at 10 ug/mL (row is the reference dOVA-2 at 80, set at 100%)",[4],100%
same,Activation at 25 ug/mL,[4],107%
same,"Activation at 25 ug/mL (row is the reference dOVA-2 at 80, set at 100%)",[4],100%
same,Activation at 10 ug/mL,[5],60.9%
same,Activation at 25 ug/mL,[5],79%
same,"tPA/Plg activation assay, relative crossbeta content compared to a misfolded ovalbumin standard",[6],"approximately 50, 75 and 125%"
same,Activation at 10 ug/mL,[7],48.8%
same,Activation at 25 ug/mL,[7],48.1%
same,tPA mediated plasminogen activation assay,[8],cH5-1 (50% of standard)
same,tPA mediated plasminogen activation assay,[9],cH5-2 (150% of standard)
same,tPA mediated plasminogen activation assay,[10],cH5-3 (200% of standard)
same,tPA mediated plasminogen activation assay,[11],cH5-4 (37% of standard)
same,tPA mediated plasminogen activation assay,[12],nH5 (140% of standard)
